Experimental data from US20260274980A1 (BIOARCTIC, published 2026).
Substitutions are numbered along the chain they refer to.

How the values were obtained:
[1] = target: T1, truncated hTfR1 of SEQ ID NO:86 (human, UniProt P02786 122-760); test: SPR (Biacore 8K), single-cycle kinetics on immobilised hTfR1 (SEQ ID NO:86), as in Example 12 [column VH first, row Human TfR1]
T1 construct: Given only as 'truncated hTfR1'; amine-coupled to a CM5 chip for SPR; also called human TfR1

[2] = target: T2, truncated cTfR1 of SEQ ID NO:87 (cynomolgus, UniProt Q5RDH6 122-760 (Pongo abelii entry), limits assumed); test: SPR (Biacore 8K), single-cycle kinetics on immobilised cTfR1 (SEQ ID NO:87), as in Example 12 [column VH first, row Cynomolgus TfR1]
T2 construct: Printed only as 'truncated cTfR1'; amine-coupled to a CM5 chip for SPR; also called cynomolgus TfR1
T2 chain: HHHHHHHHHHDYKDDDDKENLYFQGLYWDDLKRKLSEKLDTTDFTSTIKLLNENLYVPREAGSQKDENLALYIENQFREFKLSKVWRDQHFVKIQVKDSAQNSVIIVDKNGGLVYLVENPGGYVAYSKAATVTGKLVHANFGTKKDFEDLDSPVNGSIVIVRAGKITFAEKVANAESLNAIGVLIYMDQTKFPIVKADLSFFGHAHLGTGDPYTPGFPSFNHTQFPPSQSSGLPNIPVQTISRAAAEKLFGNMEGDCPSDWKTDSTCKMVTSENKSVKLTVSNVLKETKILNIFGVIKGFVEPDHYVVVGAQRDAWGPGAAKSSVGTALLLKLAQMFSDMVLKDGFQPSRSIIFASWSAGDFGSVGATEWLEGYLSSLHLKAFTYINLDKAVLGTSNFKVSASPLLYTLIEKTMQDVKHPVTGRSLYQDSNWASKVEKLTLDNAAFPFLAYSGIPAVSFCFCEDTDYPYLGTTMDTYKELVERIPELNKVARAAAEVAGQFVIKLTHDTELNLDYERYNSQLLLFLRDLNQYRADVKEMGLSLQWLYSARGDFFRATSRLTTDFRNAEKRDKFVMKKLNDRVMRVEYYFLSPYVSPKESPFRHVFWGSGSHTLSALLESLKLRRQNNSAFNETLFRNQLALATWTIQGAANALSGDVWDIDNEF

[3] = target: T3, human transferrin receptor 1 (hTfR1) on cell surfaces (human, UniProt P02786 1-760); test: flow cytometry on K562 cells (hTfR1 on the surface), Fc receptors blocked, overnight at 4 °C, detection with anti-human IgG-Alexa Fluor 488
T3 construct: Endogenous receptor on hCMEC/D3, THP-1, K562 and Ramos cells; also called CD71; endogenous hTfR1
Procedure: Fcγ receptors were blocked using Fc receptor blocker (Innovex biosciences, #NB309-4X-40) for 30 min at 4° C., after which the cells were washed in PBS. […] The plate was incubated at 4° C. overnight. […] Staining was carried out for 30 min at 4° C. […] The cells were finally resuspended in 200 μl PBS with 1% BSA and acquired using a BD FACSLyric flow cytometer system (BD Biosciences). Samples were analyzed using flowJo software (BD Biosciences).

[4] = target: T2, truncated cTfR1 of SEQ ID NO:87; test: SPR (Biacore 8K), single-cycle kinetics on immobilised cTfR1 (SEQ ID NO:87), as in Example 12 [column VL first, row Cynomolgus TfR1]
[5] = target: T4, cynomolgus TfR1 (recombinant, construct not stated) (cynomolgus, UniProt H9EXL1 90-760 (rhesus entry)); test: indirect ELISA of Fabs as for hTfR1, on cTfR1 (coating construct not stated), A450 [upper right panel cTfR1]
T4 construct: also called cTfR1; cynoTfR

[6] = target: T1, truncated hTfR1 of SEQ ID NO:86; test: SPR, hTfR1 amine-coupled, scFv in bispecific format injected

B1: mAb158-Gen2D-h26D3 VH first (bispecific antibody, human IgG1, kappa)
heavy 1: not shown
heavy 2: not shown
light: DIVMTQAPLSLPVSLGDQASISCRSSQSIVHSNGNTYLEWYLQKPGQSPKLLIYKVSNRFSGVPDRFSGSGSGTDFTLKISRVEAEDLGIYYCFQGSHVPPTFGGGTKLEIKRTVAAPSVFIFPPSDEQLKSGTASVVCLLNNFYPREAKVQWKVDNALQSGNSQESVTEQDSKDSTYSLSSTLTLSKADYEKHKVYACEVTHQGLSSPVTKSFNRGEC
notes: Knob-into-hole antibody; also called Gen 2D construct, VH first
binding result [1]: binds
binding result [2]: binds

B2: mAb158-Gen2D-h26D3 VL first (bispecific antibody, human IgG1, kappa)
heavy 1: not shown
heavy 2: not shown
light: B1 light
notes: Knob-into-hole antibody; also called Gen 2D construct, VL first
EC50 (read off the curve) [3]: ~30 nM
binding result [4]: binds

B3: h26D3-Fab (Fab, V domains shown)
VH: EVQLVQSGAEVKKPGSSVKVSCKASGYIFTDYNMDWVRQAPGQGLEWIGDINPDYDTTSYNEKFKGRATLTVDKSTSTAYMELSSLRSEDTAVYYCARGGYSGSSYYHPMDYWGQGTLVTVSS
VL: DIQMTQSPSSVSASVGDRVTITCKSSQSLLYSTNQKNYLAWYQQKPGKAPKLLIYWASTRESGVPSRFSGSGSGTDFTLTISSLQPEDFATYYCQQYFIYPRTFGQGTKVEIK
notes: His-tagged Fab from ExpiCHO; also called humanized 26D3 Fab
EC50 (read off the curve) [5]: ~1 nM

B4: bispecific binding molecule (format of WO2022/258841) comprising h26D3 LC5 scFv (bispecific antibody, V domains shown)
VH: B3 VH
VL: B3 VL with Y97A
Kd [6]: 400 to 500 nM

B5: bispecific binding molecule (format of WO2022/258841) comprising h26D3 HC6 scFv (bispecific antibody, V domains shown)
VH: B3 VH with Y55A
VL: B3 VL
Kd [6]: 100 to 200 nM
